Patent US20090148461A1 (Kyowa Kirin, published 2009)

Biological target: T1, full length human FGF23 protein (amino acid 25 to amino acid 251 of SEQ ID NO: 4) (human, UniProt Q9GZV9 25-251)
T1 construct: also called full length FGF23; human full length FGF23 protein
T1 sequence: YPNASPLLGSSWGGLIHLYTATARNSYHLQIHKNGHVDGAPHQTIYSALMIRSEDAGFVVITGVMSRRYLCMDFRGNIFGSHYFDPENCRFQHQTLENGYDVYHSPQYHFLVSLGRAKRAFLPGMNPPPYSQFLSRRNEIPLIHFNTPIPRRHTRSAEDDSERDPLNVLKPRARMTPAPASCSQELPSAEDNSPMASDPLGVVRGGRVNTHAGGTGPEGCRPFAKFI
Test: ELISA screening of hybridoma supernatants

- binding result: binds
B1: C10 antibody (anti-FGF23 human monoclonal antibody produced by hybridoma C10, FERM BP-10772) (antibody, human IgG1, V domains shown)
VH: QVQLVQSGAEVKKPGASVKVSCKASGYTFTNHYMHWVRQAPGQGLEWMGIINPISGSTSNAQKFQGRVTMTRDTSTSTVYMELSSLRSEDTAVYYCARDIVDAFDFWGQGTMVTVSS
VL: AIQLTQSPSSLSASVGDRVTITCRASQGISSALVWYQQKPGKAPKLLIYDASSLESGVPSRFSGSGSGTDFTLTISSLQPEDFATYYCQQFNDYFTFGPGTKVDIK
notes: also called recombinant C10 antibody
